In PMC10962938 (Proceedings of the National Academy of Sciences of the …, 2024):
Where two headings read alike, the source gives them in different places.

Legend:
[1] = molecular target: Δ131Δ with a K16C mutation (model client); experiment: fluorescence polarisation
[2] = molecular target: Δ131Δ with a K16C mutation (model client); experiment: fluorescence polarisation; remark: listed apart in the source
[3] = molecular target: Grp94 full-length (FL) wild type (human, UniProt P14625 22-803, biotin label (Grp94 NH3-bio), in the streptavidin pull-down); experiment: pull-down
Grp94 full-length (FL) wild type (human, UniProt P14625 22-803, biotin label (Grp94 NH3-bio), in the streptavidin pull-down), sequence (P14625 22-803): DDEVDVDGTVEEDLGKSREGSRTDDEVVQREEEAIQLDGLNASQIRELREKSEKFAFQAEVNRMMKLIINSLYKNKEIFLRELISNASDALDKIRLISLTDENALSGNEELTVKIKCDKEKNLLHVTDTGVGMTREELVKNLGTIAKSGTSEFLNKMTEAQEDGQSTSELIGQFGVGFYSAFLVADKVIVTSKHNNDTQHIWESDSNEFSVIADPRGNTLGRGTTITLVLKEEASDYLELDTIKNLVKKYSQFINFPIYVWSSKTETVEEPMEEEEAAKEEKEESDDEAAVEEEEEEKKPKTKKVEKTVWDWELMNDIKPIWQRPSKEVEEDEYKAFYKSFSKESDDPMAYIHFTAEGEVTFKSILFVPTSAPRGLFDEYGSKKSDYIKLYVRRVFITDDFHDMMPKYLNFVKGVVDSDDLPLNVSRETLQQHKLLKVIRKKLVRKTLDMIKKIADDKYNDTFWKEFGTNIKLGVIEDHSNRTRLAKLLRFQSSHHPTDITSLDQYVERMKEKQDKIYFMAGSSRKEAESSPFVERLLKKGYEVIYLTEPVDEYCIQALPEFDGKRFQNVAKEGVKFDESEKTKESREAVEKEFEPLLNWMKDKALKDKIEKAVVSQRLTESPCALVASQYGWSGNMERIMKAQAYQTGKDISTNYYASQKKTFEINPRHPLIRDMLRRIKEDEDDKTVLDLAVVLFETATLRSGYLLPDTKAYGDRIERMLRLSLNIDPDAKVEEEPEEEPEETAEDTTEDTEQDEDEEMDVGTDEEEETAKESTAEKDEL

Grp94 full-length (FL) wild type (from UniProt P14625 22-803) (natural protein), sequence (P14625 22-803): as above
Grp94 Δ72 (pre-N domain truncation, aa 73-803), sequence (P14625 73-803, stated change not applied): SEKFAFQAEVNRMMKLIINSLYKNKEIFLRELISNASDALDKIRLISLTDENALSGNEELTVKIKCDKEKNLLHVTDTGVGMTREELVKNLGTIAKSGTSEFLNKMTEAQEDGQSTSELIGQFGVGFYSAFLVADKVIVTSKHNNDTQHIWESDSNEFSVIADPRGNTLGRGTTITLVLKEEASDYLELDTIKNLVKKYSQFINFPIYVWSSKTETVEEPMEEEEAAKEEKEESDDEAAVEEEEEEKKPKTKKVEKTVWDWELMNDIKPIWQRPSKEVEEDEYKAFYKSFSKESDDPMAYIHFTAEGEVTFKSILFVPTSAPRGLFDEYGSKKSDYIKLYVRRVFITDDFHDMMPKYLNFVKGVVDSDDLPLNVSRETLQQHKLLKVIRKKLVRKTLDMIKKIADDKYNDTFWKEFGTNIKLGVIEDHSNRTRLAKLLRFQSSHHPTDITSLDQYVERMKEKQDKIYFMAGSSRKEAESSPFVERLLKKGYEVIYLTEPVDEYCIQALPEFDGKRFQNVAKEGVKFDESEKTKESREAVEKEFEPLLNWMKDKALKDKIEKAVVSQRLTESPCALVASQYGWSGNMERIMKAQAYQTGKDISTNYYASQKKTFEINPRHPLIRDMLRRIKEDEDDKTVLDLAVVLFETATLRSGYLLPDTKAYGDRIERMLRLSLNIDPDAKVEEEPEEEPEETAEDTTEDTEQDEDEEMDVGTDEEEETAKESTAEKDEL

binding result [3] | Molecule | Kd [1] | fold decrease of binding affinity against apo conditions [1] | fold decrease of binding affinity against apo conditions [2]
– | Grp94 full-length (FL) wild type (from UniProt P14625 22-803) (natural protein) | 7.2 µM | 2 fold | 2 fold
– | Grp94 Δ72 (pre-N domain truncation, aa 73-803) (from UniProt P14625 73-803) (domain or fragment) | – | 4 fold | 6 fold
binds | DnaJB11 (BiP co-chaperone, J-protein) (natural protein) GRDFYKILGVPRSASIKDIKKAYRKLALQLHPDRNPDDPQAQEKFQDLGAAYEVLSDSEKRKQYDTYGEEGLKDGHQSSHGDIFSHFFGDFGFMFGGTPRQQDRNIPRGSDIIVDLEVTLEEVYAGNFVEVVRNKPVARQAPGKRKCNCRQEMRTTQLGPGRFQMTQEVVCDECPNVKLVNEERTLEVEIEPGVRDGMEYPFIGEGEPHVDGEPGDLRFRIKVVKHPIFERRGDDLYTNVTISLVESLVGFEMDITHLDGHKVHISRDKITRPGAKLWKKGEGLPNFDNNNIKGSLIITFDVDFPKEQLTEEAREGIKQLLKQGSVQKVYNGLQGY | – | – | –
